Test results from PMC9352680, “A comprehensive thermodynamic model for RNA binding by the Saccharomyces cerevisiae Pumilio protein PUF4”.

Target: T1, PUF4 RNA-binding domain (Saccharomyces cerevisiae, UniProt P25339 537-888)
T1 sequence: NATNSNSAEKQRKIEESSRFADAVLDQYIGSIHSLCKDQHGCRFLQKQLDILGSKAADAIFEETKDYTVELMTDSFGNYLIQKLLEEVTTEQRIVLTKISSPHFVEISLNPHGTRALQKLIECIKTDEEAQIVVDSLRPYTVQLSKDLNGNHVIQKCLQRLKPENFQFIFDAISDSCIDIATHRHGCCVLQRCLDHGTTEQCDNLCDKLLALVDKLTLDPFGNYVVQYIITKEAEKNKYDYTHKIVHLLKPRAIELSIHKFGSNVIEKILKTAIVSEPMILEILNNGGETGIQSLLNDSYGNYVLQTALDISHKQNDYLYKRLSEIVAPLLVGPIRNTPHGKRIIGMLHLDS
Experiment: Mg; RNA-MaP; 20 mM Na-HEPES pH 7.4, 30 mM KOAc, 0.75 mM MgCl2, 0.1% Tween-20, 5% glycerol, 0.1 mg/mL BSA, 2 mM DTT; 25 C; 0.0125-409.6 nM protein
Details: tags: N-His6-TEV cleaved; C-SNAP kept, Cy3B-labelled; label: tethered on chip by stalled RNA polymerase

Binder | Kd [nM]
UCUCUUUGUACAUAUUUCUCUU (ssRNA) [Ic_S1_P5E.1_K5.1_C5.1_H5.1_A5.1_[T5C]_[T6A]_[A7T]_F5.1_[T8A]_[A10T]_T5.1] | 5.5
UCUCUUUGUAUCCCGGUCUCUU (ssRNA) [Ic_S1_P5E.1_K5.1_C5.1_H5.1_A5.1_[T6C]_[A7C]_F5.1_[T8C]_[T9G]_[A10G]_T5.1] | > 2300
UCUCUUUGUAAGUUCUUCUCUU (ssRNA) [Ic_S1_P5E.1_K5.1_C5.1_H5.1_A5.1_[T5A]_[T6G]_[A7T]_F5.1_[T9C]_[A10T]_T5.1] | 388
UCUCUUUGUACUCAGCUCUCUU (ssRNA) [Ic_S1_P5E.1_K5.1_C5.1_H5.1_A5.1_[T5C]_[A7C]_F5.1_[T8A]_[T9G]_[A10C]_T5.1] | 945
UCUCUUUGUACCGACCUCUCUU (ssRNA) [Ic_S1_P5E.1_K5.1_C5.1_H5.1_A5.1_[T5C]_[T6C]_[A7G]_F5.1_[T8A]_[T9C]_[A10C]_T5.1] | > 2300
UCUCUUUGUACAUGUGUCUCUU (ssRNA) [Ic_S1_P5E.1_K5.1_C5.1_H5.1_A5.1_[T5C]_[T6A]_[A7T]_F5.1_[T8G]_[A10G]_T5.1] | 27.2
UCUCUUUGUAUACAUUCUCUU (ssRNA) [Ic_S1_P4E.1_K4.1_C4.1_H4.1_A4.1_[T7C]_F4.1_[T8A]_[A9T]_T4.1] | 48.5
UCUCUUUGUAUCUGUCUCUU (ssRNA) [Ib_S1_P3E.1_K3.1_C3.1_H3.1_A3.1_[A6C]_F3.1_[A8G]_T3.1] | 81.8
UCUCUUUGUACAUUUCUCUU (ssRNA) [Ic_S1_P3E.1_K3.1_C3.1_H3.1_A3.1_[T5C]_F3.1_[A8T]_T3.1] | 5.42
UCUCUUUGUACGUCUUUCUCUU (ssRNA) [Ic_S1_P5E.1_K5.1_C5.1_H5.1_A5.1_[T5C]_[T6G]_[A7T]_F5.1_[T8C]_[A10T]_T5.1] | 425
UCUCUUUGUACUAAAAUCUCUU (ssRNA) [Ic_S1_P5E.1_K5.1_C5.1_H5.1_A5.1_[T5C]_F5.1_[T8A]_[T9A]_T5.1] | 58.8
UCUCUUUGUAAAUAAUUCUCUU (ssRNA) [Ic_S1_P5E.1_K5.1_C5.1_H5.1_A5.1_[T5A]_[T6A]_[A7T]_F5.1_[T8A]_[T9A]_[A10T]_T5.1] | 30.5
UCUCUUUGUACGCAUGUCUCUU (ssRNA) [Ic_S1_P5E.1_K5.1_C5.1_H5.1_A5.1_[T5C]_[T6G]_[A7C]_F5.1_[T8A]_[A10G]_T5.1] | 581
UCUCUUUGUAUACAGUCUCUU (ssRNA) [Ic_S1_P4E.1_K4.1_C4.1_H4.1_A4.1_[T7C]_F4.1_[T8A]_[A9G]_T4.1] | 95.6
UCUCUUUGUACGAUCAUCUCUU (ssRNA) [Ic_S1_P5E.1_K5.1_C5.1_H5.1_A5.1_[T5C]_[T6G]_F5.1_[T9C]_T5.1] | 88.9
UCUCUUUGUACCUUUUUCUCUU (ssRNA) [Ic_S1_P5E.1_K5.1_C5.1_H5.1_A5.1_[T5C]_[T6C]_[A7T]_F5.1_[A10T]_T5.1] | 26.7

Binder | Kd [nM]
UCUCUUUGUACUAUACUCUCUU (ssRNA) [Ic_S1_P5E.1_K5.1_C5.1_H5.1_A5.1_[T5C]_F5.1_[T9A]_[A10C]_T5.1] | 2.18
UCUCUUUGUAACUCCAUCUCUU (ssRNA) [Ic_S1_P5E.1_K5.1_C5.1_H5.1_A5.1_[T5A]_[T6C]_[A7T]_F5.1_[T8C]_[T9C]_T5.1] | 616
UCUCUUUGUAUGUGUCUCUU (ssRNA) [Ic_S1_P3E.1_K3.1_C3.1_H3.1_A3.1_[A6G]_F3.1_[A8G]_T3.1] | 472
UCUCUUUGUAUAAGCCUCUCUU (ssRNA) [Ic_S1_P5E.1_K5.1_C5.1_H5.1_A5.1_[T6A]_F5.1_[T8G]_[T9C]_[A10C]_T5.1] | 794
UCUCUUUGUAUACCGUUCUCUU (ssRNA) [Ic_S1_P5E.1_K5.1_C5.1_H5.1_A5.1_[T6A]_[A7C]_F5.1_[T8C]_[T9G]_[A10T]_T5.1] | 334
UCUCUUUGUAUGUCACUCUCUU (ssRNA) [Ic_S1_P5E.1_K5.1_C5.1_H5.1_A5.1_[T6G]_[A7T]_F5.1_[T8C]_[T9A]_[A10C]_T5.1] | 132
UCUCUUUGUAUAUGAUCUCUU (ssRNA) [Ic_S1_P4E.1_K4.1_C4.1_H4.1_A4.1_F4.1_[T8G]_T4.1] | 15.4
UCUCUUUGUAUAUCGAUCUCUU (ssRNA) [Ic_S1_P5E.1_K5.1_C5.1_H5.1_A5.1_[T6A]_[A7T]_F5.1_[T8C]_[T9G]_T5.1] | 38.9
UCUCUUUGUAAUCACGUCUCUU (ssRNA) [Ic_S1_P5E.1_K5.1_C5.1_H5.1_A5.1_[T5A]_[A7C]_F5.1_[T8A]_[T9C]_[A10G]_T5.1] | 1250
UCUCUUUGUAGUUUCCUCUCUU (ssRNA) [Ic_S1_P5E.1_K5.1_C5.1_H5.1_A5.1_[T5G]_[A7T]_F5.1_[T9C]_[A10C]_T5.1] | 479
UCUCUUUGUAUACACUCUCUU (ssRNA) [Ic_S1_P4E.1_K4.1_C4.1_H4.1_A4.1_[T7C]_F4.1_[T8A]_[A9C]_T4.1] | 118
UCUCUUUGUAUAACGUCUCUU (ssRNA) [Ic_S1_P4E.1_K4.1_C4.1_H4.1_A4.1_[T7A]_F4.1_[T8C]_[A9G]_T4.1] | 42.3
UCUCUUUGUAUCACAUUCUCUU (ssRNA) [Ic_S1_P5E.1_K5.1_C5.1_H5.1_A5.1_[T6C]_F5.1_[T8C]_[T9A]_[A10T]_T5.1] | 106
UCUCUUUGUAGCACUGUCUCUU (ssRNA) [Ic_S1_P5E.1_K5.1_C5.1_H5.1_A5.1_[T5G]_[T6C]_F5.1_[T8C]_[A10G]_T5.1] | > 2300
UCUCUUUGUAUACCCUCUCUU (ssRNA) [Ic_S1_P4E.1_K4.1_C4.1_H4.1_A4.1_[T7C]_F4.1_[T8C]_[A9C]_T4.1] | 93.4
UCUCUUUGUAGCAUUGUCUCUU (ssRNA) [Ic_S1_P5E.1_K5.1_C5.1_H5.1_A5.1_[T5G]_[T6C]_F5.1_[A10G]_T5.1] | 771
